Experimental data from the Immune Epitope Database (IEDB).

Experiments:
HLA-A*02:03 = assay: IEDB peptide-MHC binding, purified MHC/direct/fluorescence; filed as Kd, often an IC50 or EC50 that approximates it; ≥ and ≤ were set here for values at or beyond the usual limits of such assays; settings: source organism: Zaire ebolavirus
HLA-A*02:11 = assay: as above; settings: source organism: Zaire ebolavirus
HLA-A*02:12 = assay: as above; settings: source organism: Zaire ebolavirus
HLA-A*02:16 = assay: as above; settings: source organism: Zaire ebolavirus
HLA-A*02:19 = assay: as above; settings: source organism: Zaire ebolavirus
HLA-A*03:01 = assay: as above
HLA-A*23:01 = assay: as above; settings: source organism: Zaire ebolavirus
HLA-A*24:03 = assay: as above
HLA-A*29:02 = assay: as above; settings: source organism: Zaire ebolavirus
HLA-A*68:02 = assay: as above; settings: source organism: Zaire ebolavirus
HLA-A*02:01 [1] = assay: IEDB peptide-MHC binding, purified MHC/competitive/fluorescence; filed as Kd, often an IC50 or EC50 that approximates it; ≥ and ≤ were set here for values at or beyond the usual limits of such assays; settings: source organism: Zaire ebolavirus
HLA-A*26:01 [2] = assay: as above; settings: source organism: Zaire ebolavirus
HLA-A*31:01 [3] = assay: as above; settings: source organism: Zaire ebolavirus
HLA-A*69:01 [4] = assay: as above; settings: source organism: Zaire ebolavirus
HLA-B*15:01 [5] = assay: as above; settings: source organism: Zaire ebolavirus
HLA-B*15:17 = assay: as above; settings: source organism: Zaire ebolavirus
HLA-B*18:01 = assay: as above; settings: source organism: Zaire ebolavirus
HLA-B*27:03 = assay: as above; settings: source organism: Zaire ebolavirus
HLA-B*39:01 = assay: as above; settings: source organism: Zaire ebolavirus
HLA-B*46:01 = assay: as above; settings: source organism: Zaire ebolavirus
HLA-B*51:01 = assay: as above; settings: source organism: Zaire ebolavirus
HLA-B*57:01 = assay: as above; settings: source organism: Zaire ebolavirus
HLA-B*40:01 = assay: IEDB peptide-MHC binding, purified MHC/direct/fluorescence; filed as Kd, often an IC50 or EC50 that approximates it; ≥ and ≤ were set here for values at or beyond the usual limits of such assays
HLA-A*01:01 = assay: as above; settings: source organism: Campylobacter jejuni RM1221
HLA-A*02:01 [6] = assay: as above; settings: source organism: Campylobacter jejuni
HLA-A*11:01 = assay: as above; settings: source organism: Campylobacter jejuni
HLA-A*26:01 [7] = assay: as above; settings: source organism: Campylobacter jejuni RM1221
HLA-A*30:01 = assay: as above; settings: source organism: Campylobacter jejuni
HLA-A*31:01 [8] = assay: as above; settings: source organism: Campylobacter jejuni
HLA-A*69:01 [9] = assay: as above; settings: source organism: Campylobacter jejuni RM1221
HLA-B*07:02 = assay: as above; settings: source organism: Campylobacter jejuni RM1221
HLA-B*08:01 = assay: as above; settings: source organism: Campylobacter jejuni RM1221
HLA-B*15:01 [10] = assay: as above; settings: source organism: Campylobacter jejuni RM1221
HLA-B*27:05 = assay: as above; settings: source organism: Campylobacter jejuni RM1221
HLA-B*44:02 = assay: as above; settings: source organism: Campylobacter jejuni RM1221
HLA-B*58:01 = assay: as above; settings: source organism: Campylobacter jejuni RM1221
[11] = source organism: Zaire ebolavirus
[12] = source organism: Campylobacter jejuni RM1221

| Sequence | Kd (HLA-A*02:03) | Kd (HLA-A*02:11) | Kd (HLA-A*02:12) | Kd (HLA-A*02:16) | Kd (HLA-A*02:19) | Kd (HLA-A*24:03; [11]) | Kd (HLA-A*29:02) | Kd (HLA-A*68:02) | Kd (HLA-A*02:01 [1]) | Kd (HLA-A*26:01 [2]) | Kd (HLA-A*69:01 [4]) | Kd (HLA-B*15:01 [5]) | Kd (HLA-B*15:17) | Kd (HLA-B*18:01) | Kd (HLA-B*27:03) | Kd (HLA-B*39:01) | Kd (HLA-B*46:01) | Kd (HLA-B*51:01) | Kd (HLA-B*57:01) | other results |
| --- | --- | --- | --- | --- | --- | --- | --- | --- | --- | --- | --- | --- | --- | --- | --- | --- | --- | --- | --- | --- |
| GIVSSMHYK | ≥ 20 µM | ≥ 20 µM | ≥ 20 µM | ≥ 20 µM | ≥ 20 µM | ≥ 20 µM | ≥ 20 µM | ≥ 20 µM | ≥ 20 µM | ≥ 20 µM | ≥ 20 µM | ≥ 20 µM | ≥ 20 µM | ≥ 20 µM | ≥ 20 µM | ≥ 20 µM | ≥ 20 µM | ≥ 20 µM | ≥ 20 µM | Kd (HLA-A*03:01; source organism: Sudan ebolavirus - Maleo (1979)): 1.38 µM; Kd (HLA-A*23:01): ≥ 20 µM; Kd (HLA-A*31:01 [3]): ≥ 20 µM |
| AENCYNLEI | ≥ 20 µM | ≥ 20 µM | ≥ 20 µM | ≥ 20 µM | ≥ 20 µM | ≥ 20 µM | ≥ 20 µM | ≥ 20 µM | ≥ 20 µM | ≥ 20 µM | ≥ 20 µM | ≥ 20 µM | ≥ 20 µM | ≥ 20 µM | ≥ 20 µM | ≥ 20 µM | ≥ 20 µM | ≥ 20 µM | ≥ 20 µM | Kd (HLA-A*03:01; [11]): ≥ 20 µM; Kd (HLA-B*40:01; [11]): 0.0822 µM |
| ALIVAIWDK | – | – | – | – | – | – | – | – | – | – | – | – | – | – | – | – | – | – | – | Kd (HLA-A*01:01): ≥ 20 µM; Kd (HLA-A*02:01 [6]): ≥ 20 µM; Kd (HLA-A*03:01; source organism: Campylobacter jejuni): 2.7 µM; Kd (HLA-A*11:01): 0.553 µM; Kd (HLA-A*24:03; [12]): ≥ 20 µM; Kd (HLA-A*26:01 [7]): ≥ 20 µM; Kd (HLA-A*30:01): 8.54 µM; Kd (HLA-A*31:01 [8]): 11.8 µM; Kd (HLA-A*69:01 [9]): ≥ 20 µM; Kd (HLA-B*07:02): ≥ 20 µM; Kd (HLA-B*08:01): ≥ 20 µM; Kd (HLA-B*15:01 [10]): ≥ 20 µM; Kd (HLA-B*27:05): ≥ 20 µM; Kd (HLA-B*40:01; [12]): ≥ 20 µM; Kd (HLA-B*44:02): ≥ 20 µM; Kd (HLA-B*58:01): ≥ 20 µM |
